# The domain aggregation screens of Martell et al. (2025)
# Experiment: soluble fraction after stress (log2 fold change); higher = more stays soluble; pooled small domains, quantitative proteomics
# Details: stress: 75 degC
# 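Note: 20 min heating vs room temperature control held 20 min.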
row,Sequence,soluble fraction (log2)
1,HMSILYNAVKGTLVSSGALTADSWYKISSFGTASALPALKVGSIFKTPEGAGDAITLASGDSVYPLTLT,-1.28
2,HMSINQTIEGKKQGYWIIYGNMRNLQEYLSNEVIEEGQFKNSRKEGVWRKYFPGGQMKSEITYINGRP,-0.266
3,HMSINTIIAKNLNRLRNERNLSLGQLAELSGVSKVMLSQIEKGDSNPTVNTIWKIASGLNVPYTAILDQP,-0.798
4,HMSIPVLKDGTYESWGNEKVYKVGDRVMVGSNGYVAKWWNQDETPEKAIINPNDSPWRPMTESEIMEVLK,-0.128
5,HMSISEADAKKIALEKVPGATDSNLRIKTDYDDGIMKYEVKIVYNEMKYEFDIDAATGTILEWESESVY,-1.37
6,HMSISSSEAARSAVASSGGTVLGVSKASHGGYKAWAVRIQRADGSVVTGYVDRASGTVYDWVVNQAA,-0.663
7,HMSKEDDSLVVTFRRMLLEEVDLHELSRIDANQRRARLERVIAHLVSREGVILSASERNQLVRRVVDEAV,-2
8,HMSKEEAIQAMKEGKKVTHRFFSSDEWMTIENGFLLLEDGVRISLEDFFNFRSDSLWDNGYELYNPH,-0.628
9,HMSKFSDTLVYLRKRAGFSQQELADKMEVSRSLVGMYESGQRMPSYEMLEALADIFNVNIDFLTGH,-1.28
10,HMSKIRSEINKFSSDADKPILEWLFERYHWASQWRFVARFSEQRYGVLSYEINRVWEPTIEGRALYDQL,-2.27
11,HMSKKMLASIFDTISGIGKKRLKKIWDNYTSLNELKDDSLENIYAKTQIPINLITKIKEKLE,-0.913
12,HMSKKMTNEEILNFLKKVLIKHGKISGFIIDEDDNGPSSSVVASRFGGLLNAYKLINYTPER,-0.906
13,HMSKMTLGENLRLLRREKGLSQEQVAQTLFVARQTISKWENGQAEPGVESLKALAKLYGVSLDRLVGA,-1.01
14,HMSKPLEVFKLTSEPFGFSFNTALGRSYTVEATGDLGVWKAVELFQGSGGEIRFTAKPTSSGGAQFFRVFV,0.0649
15,HMSKPVYILINKPKGFLASSTDKKVKKSVNDLINISNLNKIYPFDNMGRTSSGLLLLSNDLYFKKHFKDKI,0.451
16,HMSKQKRIKYFLSILNIKSIKQFRKKDLDYFYQKRFIEIQKSSKDKKLVSNQLIELNAAKEYLDEIDFEN,-3.78
17,HMSKQQVRSILDDIPNIGETRRKALMRQFQSLEKIREASVGQLREVDGMNEKAAQSVYQFFHK,-0.0426
18,HMSKQVDVVIYILENTKAADNTYIGTYRKTADGAGVSLDTATKVMRKLQENNFIKKVQNGVYQISPLIMM,-1.42
19,HMSKRDDLLDQASEWLAKLDRDLTVVEERELKAWLGESAAHRETFIQMAKLWDKMESLSRLTDL,-0.898
20,HMSKSVEQRRQQIVAWVKEHGQSQVEDLAVRFATSEVTIRKDLAALSQQGLLIRQFGGAVPVPA,-0.982
21,HMSKTQYTFKEVGSQFQLFAPSTKHTIMISADHPKYGWLTNQDQGRVINVYDTGKMTSSQDYYGLYKEVT,0.587
22,HMSKTQYTFREVGSQFELHAPSTNHKIMVDANHPKYGWLSSQEAGRVINVYESGKMTSSQDYYGLYKQS,-0.092
23,HMSLANTSVKEMLNDLVKNEEPSKPLSDEALVKIFKEKGVKIARRTVAKYRAELNILPSHLRRT,-1.56
24,HMSLAVFLQGLLEEKQLKKADVIRRTGMEPTYGYHIFDGHKKHPARSKVLLLALAMGLTVKEAQHLLYYAG,-0.423

row,Sequence,soluble fraction (log2)
1,HMSLDAAAVASKLIKRLSKSPGRRFALDDLAVDVGLPHEQGRPLVRSALELLVRTQQAVEGPPNVFRLFF,-2.51
2,HMSLEDMILSLSSRIRRGESLHFRELLVAIETKSGMVTIFMAVLELLKQQVMEMRYEDDDIIFT,-1.04
3,HMSLEEIPLEERLGPGGLDPVAVYDSLPREMRDAFDSGSVSALREFVNALPAEDAARHMKAMVDSGLWVPT,0.148
4,HMSLETRRYQLPRTDAQTASGLLRSLSGLPGVREVNLSGEGVAYLKVDSKGFDEQNVIKLLAGE,0.47
5,HMSLHSITIPQEFIGAVIGPGGKVIQEIQKQTGTTITITEKDNKGYVDIFGEDKGALDSALARIKEIVAIP,0.289
6,HMSLIDYLNELMNEKNITVAQVAKNSGIGEYVYKIFNGERNAKRDTLVAISFGMHLNFEETQLLLRIA,-1.19
7,HMSLPALALRQADSLAFKQVIYHDRVVPFNTLARDFVLKLTGKPSYGGMTPEQVVGGWLLRPEVWQNEPM,0.192
8,HMSLPAYIKISEVIARRINAGQILAGDRLPNERTMAVEFGVAVGTLRKALYHLQVRGLVTRKHGSGNYINK,-0.221
9,HMSLPKIVVPTDVTVSQLAKYLEVDAISIIKQLFGMGVVASLNQRLEDEIIQLIGNEFGKEIIFSE,0.162
10,HMSLPQSKDAVITILRTLPQLDTRAPEVYKLLGPHALDIILEDPEQVAKKINHVGVATAKLWQQALLGFK,-0.751
11,HMSLQDYYQVLGVFYNAGDKEIKRRWKELINQYHPDLAQAKGASPEEIENYTLKMAEINNAYEQIMKSRKA,-0.396
12,HMSLSASELDQLRMMTKVSHMYHTRGMVQIDIARSLGLSQARVSRLLSAAEDANIVRTVVVA,-0.392
13,HMSLTAQVFTDRGKVLLSENKFTEAIDQFTKALAMDKVYIEALNRRIEAYQHLGLTELAAKDEALLGTL,-1.16
14,HMSLTPSQDANRSAILDAARDLFARYGFKKTTMEDIAMALRKGKSSLYYYFKNKEDIFQAVIDS,-1.25
15,HMSMDAVSLANRLLRFFQKRPGRKFTAADLAFETGMNERTGKSLVTSALEILSRTNQIEADGDGFRLKM,0.0354
16,HMSMEIQEIIRQLREKNDWSQEDMAERVGLSKNGYAKIERGETNLNLERLEQIANLFDLSVIDLIEMS,-0.764
17,HMSMEKNWVPSEDVIEILTRAGMNENFIRELIPEFIIYWSERKDVLISYDSKFIEHARLKWAQHNAE,0.454
18,HMSMFTPAQVAQTLTVPPSTLRRWAKRFAPFLSPQSGKKRTYTVADLDTFQRIKELSAQGYTFAQIDQAL,-1.32
19,HMSMLSQERQSLILDIIKEQGSVTVTRLTEILQSSESTVRRDLSYLASKGKINKVHGGATALG,-0.39
20,HMSMNGNMIHATVIWKGRYFLVKMFFPQLTKPKRAEVQAQIEKAYPGSRVASYHITDYKPGEQFLHV,-1.84
21,HMSMPEVLSDRELEIFRMIGTGMSTGDIAKKLNISVNTIESHRKKIKDKLGIQKGSELVKAAVQWVSTQQ,-0.741
22,HMSMSVLFSELDQKDAGVIVEKLKERKIPYELQSGGSAIMVPANVLHETRLQLAAEGLPQSS,-0.0383
23,HMSMTVHGALRLLQLPTIADRPYTLKEIREAYREQAQNHHPDAGGSADAMRRLNEAYQFLKERYRQA,-0.449
24,HMSNEKVVKFAQELLVDEERSAISPALISAKIDQVLMFKPAWNEGLDRDAVVNELVRRFSIW,-1.24

row,Sequence,soluble fraction (log2)
1,HMSNGFFELKTSQQDELIDLIDSHTNFVRTKIEGELITAFLKLPMDAEEFNKLLFTNGIILSHLVKRK,-0.713
2,HMSNIIGNTAYSAIPDKQYFRLKSETAEKVANYLTENNIPFSGRINGDKTTLTIGQKNVDDYKAAVATVTG,0.0528
3,HMSNIVNYEVYVYQNDAWDLLARYPSEKRAEAIEYAKSTEFSLNRPTKVIRETYDLDTQKFQEALIYLSE,-0.743
4,HMSNLNHSFQYKKNIGRKISLTYLGRDNESISKIYELIDSNDSGILVKNKNVEIFIHYEKIVSAKIKVS,-1.78
5,HMSNLTDLVSAKEAEVYLHFLESGSTAGMTEAELRAVRKIEELIQSNKIDYNGILRIRNETVK,0.0216
6,HMSNNLAYSQFLDRVKNKEIRKVEIRGQSIVGYTSNNETFKTYAPLNDPKMYDELLTNDVQVQVDPP,-0.0765
7,HMSNQLAVPDVTNMKANAAADRLRQQGLRVELKTESSNTVPRGMAIRTDPAASTMVARGGRVTLIISSGKG,-0.248
8,HMSNSGFVKNNGKTEFYDASGRQAKSSWINISGKWYYFDLNGTMVTGWQRISNKWYYFLEDGSK,-0.0724
9,HMSNSMISKDKAMSIALAKVSGATSSNIYIELEKDDGRYTYEGEINFNNKEYEFEIDAYTGNILKWEVDSI,-0.806
10,HMSNTPHSREVLLEMDAVRRLLAVGEEKGEVDRADLQGAFEEAELGRGDLDGVLSILREYDVPLAR,0.0604
11,HMSNVIYFNYNDYKFLFMGDAGVDKETDILEKYTLSNIDFLKVGHHGSDTSSNKGFIDSIQPKYSLIS,-1.53
12,HMSNWTILIIQGSAHLIDLDSKITEIDGFGSFPTKILQDYNLNEEFEIFDTNVKMVNSVQSDLQSN,-2.48
13,HMSNYIVELSSSEKIDDIDNNNNLINSFFSKSDSQWEYKLVFKNKNEMDVFVKKISTNNKIISYKTSS,-1.17
14,HMSPAETGIYHILVENGKPNRHGLDATNKNENWLRQFLITQNTRLEDVFLLLADDGGGIRFFKSQ,-1.26
15,HMSPAPVSVDHLAFPTRDLEATDHFYSKVVGATLVHAESGYSPSWKSDYLLITYALPDGTRLSFFDWP,0.105
16,HMSPDTREAILAAARTAFARDGYQTSLRGIARDAGVDPALVHHYFPDRATLFAKAVIESTAG,-0.0532
17,HMSPFAHHLHELRMRHGIRQNELAELIGYDQTYISALEVGLKGPPTPEFVDKLVEGLALSRTEEAALRSAA,-0.483
18,HMSPFYALDEVDSFLDGVNVERLAALIARQAEQAQFLVVSHRRPMIGASTRTIGVTQARGAHTQVVGLP,-0.312
19,HMSPGAKIEVTGNTVNLRAGPGTNYDTRGQVKKGEQLPLLGEQGGWYRVQTSRGVAYLAGWLARVLT,-1.43
20,HMSPLDSHLGRRIALRRQQLNTSAADLEKAISMVPGSVARFEAGRQSLNATQLFTLSRALDVPVLYFFEG,-0.705
21,HMSPREDQQSRKQHILEAAAVLFAERGYYKTTTADVARAVGVTQPYVFHFFKSKEELYLAVL,0.163
22,HMSPSDLSAEAQKVYALLDGRELSFDTLVEESGFDTGSLLAILMRLEMKMLVEHGADQVYRRSG,-1.51
